Results from patent US20180148514A1, “MULTIVALENT MEDITOPES, MEDITOPE-BINDING ANTIBODIES AND USES THEREOF” (City of Hope, priority 2014, published 2018).

B1: MOR-208: Meditope-enabled MOR208 (CD-19 antibody), light chain SEQ ID NO: 226, heavy chain SEQ ID NO: 227, pHrodo labeled (protein)
light: DIVMTQSPAILSLSPGERATLSCRSSKSLQNVNGNTYLYWFQQKTNGSPRLLIYRMSNLNSGVPDRFSGSGSGTEFTLTISSLEPEDEADYYCIQHLEYPITFGAGTKLEIKRTVAAPSVFIFPPSDEQLKSGTASVVCLLNNFYPREAKVQWKVDNALQSGNSQESVTEQDSKDSTYSLSSTLTLSKADYEKHKVYACEVTHQGLSSPVTKSFNRGEC
heavy: EVQLVESGGGLVKPGGSLKLSCAASGYTFTSYVMHWVRQSPGKGLEWIGYINPYNDGTKYNEKFQGRVTISSDKSISTAYMELSSLRSEDTAIYYCARGTYYYGTRVFDYWGQGTLVTVSSASTKGPSVFPLAPSSKSTSGGTAALGCLVKDYFPEPVTVSWNSGALTSGVHTFPAVLQSSGLYSLSSVVTVPSSSLGTQTYICNVNHKPSNTKVDKKVEPKSCDKTHTCPPCPAPELLGGPDVFLFPPKPKDTLMISRTPEVTCVVVDVSHEDPEVQFNWYVDGVEVHNAKTKPREEQFNSTFRVVSVLTVVHQDWLNGKEYKCKVSNKALPAPEEKTISKTKGQPREPQVYTLPPSREEMTKNQVSLTCLVKGFYPSDIAVEWESNGQPENNYKTTPPMLDSDGSFFLYSKLTVDKSRWQQGNVFSCSVMHEALHNHYTQKSLSLSPGK
modifications: pHrodo label; (1)..(219) MOR-208 Light chain; (1)..(451) MOR-208 Heavy chain
B2: TVM: trivalent meditope, peptide sequence of SEQ ID NO: 231, expressed in E. coli (protein)
chain: MGGGSWSHPQFEKGGGSGGGMSDSEVNQEAKPEVKPEVKPETHINLKVSDGSSEIFFKIKKTTPLRRLMEAFAKRQGKEMDSLRFLYDGIRIQADQTPEDLDMEDNDIIEAHREQIGGGGSAAPSSAPSPSAPCQFDLSTRRLSCGGASPAASPSAPSSPAPKAPSAAPSSAPSPSAPGGCQFDLSTRRLSCGGASPAASPSAPSSPAPKAPSAAPSSAPSPSAPGGCQFDLSTRRLSCGGSPSAPSSPSSPKLPETG
modifications: (1)..(258) His6-SMT-Trivalent meditope (TVM) sequence (Amino Acid)
B3: BVM: bivalent meditope, peptide sequence of SEQ ID NO: 229 (protein)
chain: MGSSHHHHHHSSGLVPRGSHMGGGSWSHPQFEKGGGSGGGMSDSEVNQEAKPEVKPEVKPETHINLKVSDGSSEIFFKIKKTTPLRRLMEAFAKRQGKEMDSLRFLYDGIRIQADQTPEDLDMEDNDIIEAHREQIGGGGSAAPSSAPSPSAPCQFDLSTRRLSCGGASPAASPSAPSSPAPKAPSAAPSSAPSPSAPGGCQFDLSTRRLSCGGASPAASPSAPSSPAPK
modifications: (1)..(230) His6-SMT3-Bivalent meditope (BVM) sequence (Amino Acid)

How the values were obtained:
Raji-B cells = assay: pHrodo-labeled CD-19 antibody internalization, fluorescence microscopy, Raji-B; type: cell-based, human; settings: 100 nM antibody with or without 100 nM meditope-Fc, 30 minutes, 37° C., n=8
Description: Raji-B cells, a human B lymphocyte cell line derived from human lymphoblast, CCL-86™, ATCC®, were stained for fluorescence microscopy to determine receptor-mediated endocytosis rates of the pHrodo™-labeled CD-19 antibody. Cells were stained in Nunc® Lab-Tek® II chambered 8 well coverglass polystyrene chambers (0.7 cm^2/well). Cells were stained using either 100 nM antibody and 100 nM of Alexa Fluor 488®-labeled meditope-Fc (SEQ ID NO: 236) or 100 nM antibody alone (control) for 30 minutes at 37° C. in serum-free media. Nuclei of Raji-B cells were also stained with Hoechst 33342 (2 μg/mL final concentration for 20 minutes).
Cells were imaged with a confocal microscope using appropriate wavelength settings for pHrodo™-labeled antibodies, Alexa Fluor 488-labeled meditope-Fc, and Hoechst 33342-labeled nuclei. Z sectioning permitted visualization of the internalized materials and all quantitative measurements were taken at the same defined section height. Cells were visualized and quantified at each time point for each visualization event. Total fluorescence of each stain inside and outside of imaged cells were calculated using ImageJ analysis at a single time point of 30 minutes. Total staining for MOR-208 alone was calculated as 1797.71±194.97 (n=8). Total staining for MOR-208 bound to meditope-Fc was calculated as 4430.43±632.59 (n=8).

[1] = tested on: Meditope-enabled trastuzumab version 2; assay: SPR multivalent meditope valency test at varying ligand densities; type: binding; settings: for Ka / t1/2: 37° C., 1:1 fit
Description: The low density channel was approximately 150 RU (FIG. 19A), the medium density channel was approximately 750 RU (FIG. 19B), and the high density channel was approximately 1500 RU (FIG. 19C).
Trivalent meditope (TVM) (SEQ ID NO: 231) concentrations were prepared as a 5-fold dilution series from 1 μM to 2.6 pM in HBS-EP+. Samples were flowed over all four channels at 30 μL/min at 37° C. Sensograms were double referenced to the blank immobilization on channel 1 and with two “0” concentration buffer blanks.
A control meditope peptide was run at the beginning and end of the experiment to assess for loss of surface activity during the experiment. Less than 5% decrease in signal was observed on the most dense ligand surface after the experiment was completed. Regeneration buffer for the experiment was a pulse of 10 mM glycine pH 3.0 with variable time from 2-10 seconds followed by a 30 sec pulse of running buffer HBS-EP+.
Data fits were performed using BiaEvaluation software with the 1:1 fit model. Data fit quality to the 1:1 binding model decreased as the surface density of ligand increased and the off rate was not well determined due to lack of curvature.

SKBR3 cells = assay: Microscopy of SKBR3 cells with labeled TVM and trastuzumab variants; type: cell-based
Description: TVM was labeled with NHS-Alexa Fluor 647 following the manufacturer's protocol (Thermo Fisher Scientific, Waltham Mass.) 0.1 M sodium bicarbonate buffer pH 8.0 at room temperature for 1 hour).

[2] = tested on: meditope enabled antibody trastuzumab; assay: SPR analysis of BVM and TVM gel filtration fractions; type: binding; settings: BVM fractions 26-29, TVM fractions 21-23
[3] = most densely immobilized surface

| Molecule | total staining (total fluorescence, ImageJ) (Raji-B cells) | Ka ([1]; density 150 RU) [M⁻¹ s⁻¹] | t1/2 ([1]; density 150 RU) [h] | Ka ([1]; density 750 RU) [M⁻¹ s⁻¹] | t1/2 ([1]; density 750 RU) [h] | Ka ([1]; density 1500 RU) [M⁻¹ s⁻¹] | t1/2 ([1]; density 1500 RU) [h] | half-life [1, 3] [h] | improvement of half-life over monovalent meditope [1, 3] [fold] | cell morphology and attachment (SKBR3 cells; labeled TVM with meditope enabled antibody trastuzumab) | cell morphology and attachment (SKBR3 cells; labeled TVM with parental trastuzumab) | binding (SPR) [2] |
| --- | --- | --- | --- | --- | --- | --- | --- | --- | --- | --- | --- | --- |
| B1 | 1797.71±194.97 | – | – | – | – | – | – | – | – | – | – | – |
| B2 | – | 8700 | 0.4 | 10000 | 1.3 | 9800 | 2.4 | 2.42 | > 30 | rounded morphology and frequently detached from the surface of the coverslides | not observed | bound meditope enabled antibody trastuzumab antibodies |
| B3 | – | – | – | – | – | – | – | – | – | – | – | bound meditope enabled antibody trastuzumab antibodies |
